Here are results for four molecules from doi:10.1101/671792 (bioRxiv, 2019).

Sequences and labels used below:
B1: p62/SQSTM1 PB1 domain, residues 1-102 (domain or fragment)
chain: MASLTVKAYLLGKEDAAREIRRFSFCCSPEPEAEAEAAAGPGPCERLLSRVAALFPALRPGGFQAHYRDEDGDLVAFSSDEELTMAMSYVKDDIFRIYIKEK
B2: TFG-1 (Trk-fused gene 1) PB1 domain, residues 1-95 (domain or fragment)
chain: MNGQLDLSGKLIIKAQLGEDIRRIPIHNEDITYDELVLMMQRVFRGKLLSNDEVTIKYKDEDGDLITIFDSSDLSFAIQCSRILKLTLFVNGQPR
B3: MBP-tagged wild-type AtNBR1-PB1 (domain or fragment)
chain: MESTANALVVKVSYGGVLRRFRVPVKANGQLDLEMAGLKEKIAALFNLSADAELSLTYSDEDGDVVALVDDNDLFDVTNQRLKFLKINVNAGVST
B4: Arabidopsis thaliana NBR1 PB1 domain, residues 1-95 (domain or fragment)
chain: B3 chain

The data set “sedimentation” deals with the molecule itself. The data set is described as follows: sedimentation.
Data set [1] addresses B4. Nature of the data set: pull-down.

As for B1, the binding result in “sedimentation” is recorded as “binds”.

For B2, the binding result in the data set “sedimentation” is “binds”.

As for B3, the binding result in data set [1] is “binds”.

Turning to B4, in the data set “sedimentation”, the binding result is listed as “binds”.
